Laboratory results: the supplement of paper PMC12667976

B1: library; numbered along this chain (parent)
chain: MATDAALRRLLRLHRTEIAVAVDSAFPLLHALADHDVVPEDKFQETLHLKEKEGCPQAFHALLSWLLTQDSTAILDFWRVLFKDYNLERYGRLQPILDSFPKDVDLSQPRKGRKPPAVPKALVPPPRLPTKRKASEEARAAAPAALTPRGTASPGSQLKAKPPKKPESSAEQQRLPLGNGIQTMSASVQRAVAMSSGDVPGARGAVEGILIQQVFESGGSKKCIQVGGEFYTPSKFEDSGSGKNKARSSSGPKPLVRAKGAQGAAPGGGEARLGQQGSVPAPLALPSDPQLHQKNEDECAVCRDGGELICCDGCPRAFHLACLSPPLREIPSGTWRCSSCLQATVQEVQPRAEEPRPQEPPVETPLPPGLRSAGEEVRGPPGEPLAGMDTTLVYKHLPAPPSAAPLPGLDSSALHPLLCVGPEGQQNLAPGARCGVCGDGTDVLRCTHCAAAFHWRCHFPAGTSRPGTGLRCRSCSGDVTPAPVEGVLAPSPARLAPGPAKDDTASHEPALHRDDLESLLSEHTFDGILQWAIQSMARPAAPFPS

Variants of: B1
Assay: AIRE transcriptional activation functional score (insulin promoter-GFP; nonsense median 0, synonymous median 1) (normalised score); higher = higher AIRE activity (more reporter activation)
Conditions: with insulin promoter-GFP reporter in HEK293
Procedure: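 Deep mutational scan of full-length human AIRE (codon-optimized cDNA, DT-POPCode NNN libraries over three regions) integrated at a Bxb1 landing pad in HEK293 cells carrying an insulin core promoter-GFP reporter at a Flp-In site. Cells were sorted for the top 10% GFP about 14 days after transfection. Variant frequency log-ratios (select vs non-select, TileSeq) were rescaled so that the nonsense median is 0 and the synonymous median is 1, then averaged over biological replicates.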

AIRE transcriptional activation functional score, by site and new letter:
T232: E 1.05, F -0.0868, G 0.941, H 0.729, I 0.928, K 1.16, L 1.1, M 1.22, N 0.834, P 0.894, Q 1.38, R 1.18, S 1.15, V 1.07, W 0.451, Y 0.775
P233: A 1.09, C 1.17, D 0.675, F -0.0788, G 1.15, H 1.29, I 0.184, K 0.232, L 0.385, N 1.51, Q 0.416, R 1.18, S 1.01, T 1.07, V 0.512, Y 0.576
S234: A 1.24, C 1.53, D -0.22, E 0.552, F 1.31, G 1.16, I 0.96, K 0.869, L 1.04, M 1.15, P 1.19, Q 1.22, R 1.21, T 0.61, V 1.19, W 0.775, Y 1.11
K235: A 0.515, C 1.5, E 0.408, F 0.827, G 1.17, H 0.221, I 0.627, L 0.897, M 1.33, N 0.479, P 1.43, Q 1.04, R 1.19, S 0.877, T 0.985, V 1.45, W 1.15, Y 1.01
F236: A 1.03, C 0.925, G 0.726, I 1.01, K 0.0925, L 0.651, M -0.434, N 1.68, P 0.266, R 0.401, S 0.712, T -0.222, V 0.877, W 1.44, Y 0.564
E237: A 1.08, C 1.16, D 0.996, F -1.02, G 1.06, H 0.943, I 0.885, K 0.979, L 1.16, M 1.3, P 0.729, Q 1.03, R 0.603, S 0.791, T 0.952, V 1.19, W 0.832, Y 0.617
D238: A 1.15, C 1.24, E 0.685, F 1.04, G 1, H 1.34, I 1.27, K 0.355, L 1.13, M 0.876, N 0.588, P 1.5, Q 0.948, R 0.333, S 0.788, T 0.755, V 1.23, Y 1.12
S239: A 1.2, C 1.16, D 0.131, E 0.783, F 1.06, G 1.05, H 1.27, I 0.737, K -0.0573, L 1.31, M 1.69, N 1.4, P 1.06, R 1.13, T 1.17, V 1.13, W 1.37, Y 1.43
G240: A 0.723, C 0.742, E 0.406, F 0.96, H 0.0803, I 0.539, K 1.07, L 1.2, M 1.08, N 1.96, P 0.78, Q 0.0726, R 1.01, S 1.1, T 1.47, V 0.921, W 1.09, Y -0.451
S241: A 0.598, C 1.11, D 1.13, E 1.29, F 1.2, G 0.897, H 0.567, I 1.06, K 0.301, L 1.17, M 1.1, N 1.13, P 1.31, Q 0.992, R 0.436, T 1.11, V 0.868, W 0.868, Y 1.12
G242: A 1.19, C 1.06, D 0.951, E 0.0818, F 1.23, I -0.56, K 0.747, L 1.13, P 0.412, Q 0.988, R 0.611, S 0.694, T -0.775, V 1.04, W 0.936, Y 1.6
K243: A 0.56, C 0.711, D 0.0348, E 0.511, F 0.81, G 1.03, H 1.02, I 1.02, L 1.47, M 1.31, N 1.06, P 0.97, Q 0.804, R 1.1, S 1, T 1.08, V 0.856, W 1.3, Y -0.257
N244: A 0.269, C 0.374, D 1.1, E 0.249, F 1.08, G 0.138, H 0.405, I 1.07, K -0.184, L 0.301, M -0.168, Q 1.19, R 0.573, S 1.3, T 1.14, V 0.206, Y 1.25
K245: A 1.33, C 1, D 0.145, E 0.245, F 1.67, G 0.76, H 1.35, I 0.196, L 0.453, M 0.0585, N 0.375, P 1.07, Q 0.887, R 0.472, S 0.252, T -0.0733, V 1.32, W 0.978, Y 1.21
A246: C 1.22, D 0.858, E 0.55, F 1.39, G 0.693, H 1.42, I 0.408, K 0.609, L 1, N 0.102, P 1.05, Q -0.0407, R 0.482, S 0.759, T 0.841, V 1.12, W 1.47, Y 1.43
R247: A 0.732, C 1.05, D 0.268, E 1.52, F 0.902, G 0.529, H -1.26, I 0.937, K 1.2, L 0.895, M 1.42, N 0.919, P 0.344, Q 0.669, S 0.966, T 0.898, V 1.16, W 0.502, Y 0.724
S248: A 0.947, C 1.03, D 1.25, E 0.474, F 1.09, G 1.13, I 1.16, K 0.517, L 1.11, M 1.01, N 0.778, P 1.33, Q 0.368, R 0.215, T 0.975, V 0.819, W 1.01, Y 1.07
S249: A 1.07, C 1.33, D 0.114, E -0.0377, F 0.707, G 1.22, H 0.402, I 1.25, L 0.67, M 1.28, N 0.548, P 0.451, Q 0.961, R -0.21, T 0.256, V 1.12, W 1.81, Y 0.973
S250: A 0.792, C 1.23, D 0.427, E 0.4, F 1.13, G 0.835, H 0.963, I 1.11, K 0.556, L 1.02, M 1.68, N 0.847, P -0.109, Q -0.615, R 0.0524, T 0.687, V 1.1
